The values below come from publication doi:10.1101/2021.09.12.459968 (bioRxiv, 2021).

Series [1] deals with the molecule itself. Description: negative-staining electron microscopy.
The target in series [2] is full-length mouse NLRP3 (FLAG-mScarlet tag removed), double ring cage (mouse, UniProt Q8R4B8 1-1033). Description: co-sedimentation.

B1: mouse NLRP3 LRRm6 (K970E_Q1001R_F1029A) (natural protein)
chain: MTSVRCKLAQYLEDLEDVDLKKFKMHLEDYPPEKGCIPVPRGQMEKADHLDLATLMIDFNGEEKAWAMAVWIFAAINRRDLWEKAKKDQPEWNDTCTSHSSMVCQEDSLEEEWMGLLGYLSRISICKKKKDYCKMYRRHVRSRFYSIKDRNARLGESVDLNSRYTQLQLVKEHPSKQEREHELLTIGRTKMRDSPMSSLKLELLFEPEDGHSEPVHTVVFQGAAGIGKTILARKIMLDWALGKLFKDKFDYLFFIHCREVSLRTPRSLADLIVSCWPDPNPPVCKILRKPSRILFLMDGFDELQGAFDEHIGEVCTDWQKAVRGDILLSSLIRKKLLPKASLLITTRPVALEKLQHLLDHPRHVEILGFSEAKRKEYFFKYFSNELQAREAFRLIQENEVLFTMCFIPLVCWIVCTGLKQQMETGKSLAQTSKTTTAVYVFFLSSLLQSRGGIEEHLFSDYLQGLCSLAADGIWNQKILFEECDLRKHGLQKTDVSAFLRMNVFQKEVDCERFYSFSHMTFQEFFAAMYYLLEEEAEGETVRKGPGGCSDLLNRDVKVLLENYGKFEKGYLIFVVRFLFGLVNQERTSYLEKKLSCKISQQVRLELLKWIEVKAKAKKLQWQPSQLELFYCLYEMQEEDFVQSAMDHFPKIEINLSTRMDHVVSSFCIKNCHRVKTLSLGFFHNSPKEEEEERRGGRPLDQVQCVFPDTHVACSSRLVNCCLTSSFCRGLFSSLSTNRSLTELDLSDNTLGDPGMRVLCEALQHPGCNIQRLWLGRCGLSHQCCFDISSVLSSSQKLVELDLSDNALGDFGIRLLCVGLKHLLCNLQKLWLVSCCLTSACCQDLALVLSSNHSLTRLYIGENALGDSGVQVLCEKMKDPQCNLQKLGLVNSGLTSICCSALTSVLKTNQNFTHLYLRSNALGDTGLRLLCEGLLHPDCKLQMLELDNCSLTSHSCWNLSTILTHNHSLRELNLGNNDLGDLCVVTLCEVLKQQGCLLQSLRLGEMYLNRETKRALEALQEEKPELTIVAEISW
As to B1, the binding result in series [1] was “binds”.

B2: recombinant full-length mouse NEK7 (enzyme)
chain: not shown
Regarding B2, in series [2], the binding result was “binds”.
